From patent publication US20220160939A1, “SELF-ASSEMBLING PEPTIDES AS BRONCHIAL OBSTRUCTION AGENTS” (3-D MATRIX, LTD., priority 2014, published 2022) come the findings set out here.

Data set [1] is described as follows: Rheological properties of 1% peptides before and after DMEM treatment for 2 minutes. Conditions: peptides 1%; DMEM 2 minutes; compared with weaker peptide solutions (i.e., PuraMatrix). In kind it is physicochemical. The procedure: The effects of Dulbecco's modified Eagle's medium (DMEM) (pH 7.4) on the rheological properties of IEIK13 (SEQ ID NO:2), KLD12 (SEQ ID NO:3), and PuraMatrix® (SEQ ID NO:1) were evaluated on a rheometer (AR500, TA Instruments) with 40 mm plates. DMEM is generally a cell culture medium that contains 6.4 g/L of NaCl, 3.4 g/L NaHCO3 (sodium bicarbonate), minor amounts of other salts, various amino acids, and 4.5 g/L of glucose. The pH level of DMEM is generally 7.2±0.2 and the osmolality is 335±30 mOsm/Kg H2O; both measurements are close to human physiological fluids such as blood.
Peptide solutions (1%) were kept at 4° C. for at least 48 hours before testing. To perform the experiment, 1 mL of peptide solution was gently pipetted and placed on the plate of the rheometer. 2 mL of DMEM solution was gently added around the peptide solution. The peptide solution was treated with DMEM for two minutes, then the media was removed, and the plates were placed at a measuring geometry gap at around 450 μm. Measurements were performed at 37° C. after 2 min of relaxation time. Frequency tests were performed from 1 rad/s to 100 rad/s at 1 Pa of oscillation stress.
The rheological properties of the peptides (1%) were compared before and after DMEM treatment for 2 minutes, as shown in FIG. 1A. […]

Data set [2] is described as follows: Rheological measurements of RADA16 with NaCl, KCl, CaCl2 (stiffness, reversibility). Type of data set: physicochemical. How it is done:
In a rheological comparison of […] (SEQ ID NO:1)+NaCl, KCl, and CaCl2), solutions of 0.5% RADA16 (SEQ ID NO:1) mixed with 0.005, 0.05, 0.125, 0.25, 0.5, and 1 M NaCl, KCl, and CaCl2) were prepared. The anion, chloride (Cl−), was kept the same to observe the effect of the cations, sodium (Na+), potassium (K+), and calcium (Ca2+). FIG. 21 provides a basic understanding of how varying the cations of a salt solution effects the viscoelastic properties and the stiffness of self-assembling peptides. […] This should be because Ca has […] higher ionic strength than Na and K at the same molar concentrations. Therefore, influence of salts on the peptide solution is more related to their ionic strength rather than their molar concentration, as shown in FIGS. 17-18 and Table 2a-c. In some embodiments, there is a correlation between the properties of the peptide solutions with salts based on the concentration of the salt.
Rheological measurements of stiffness of 2.5% RADA16 (SEQ ID NO:1) and 2.5% RADA16 (SEQ ID NO:1)+0.25 M CaCl2) was evaluated.
Rheological measurements of reversibility of 0.5% RADA16 (SEQ ID NO:1) solution with +0.125, 0.25, and 0.5 M CaCl2) were evaluated. Solutions of 0.5% RADA16 (SEQ ID NO:1) mixed with 0.125, 0.25, and 0.5 M CaCl2) were prepared. The structure of the self-assembled peptide solutions were disrupted thoroughly by application of mechanical stress through vortexing and sonication. The mixtures were placed at room temperature for 48 hours to allow self-assembly to take place. […] FIG. 23A presents raw rheological data of the control peptide solution with salts and the perturbed peptide solution while FIG. 23B provides a comparison of stiffness of the control peptide solution and the perturbed peptide solution.

As for “Ile-Glu-Ile-Lys-Ile-Glu-Ile-Lys-Ile-Glu-Ile-Lys-Ile [IEIK13]”, in data set [1], the “fold increase of storage modulus after DMEM treatment” value is reported as “lower-fold increase”.
On to “Arg-Ala-Asp-Ala-Arg-Ala-Asp-Ala-Arg-Ala-Asp-Ala-Arg-Ala-Asp-Ala [PuraMatrix ®]”, for which, in data set [2] (0.5% RADA16, chloride salts at the same molar concentrations), the “enhancement of stiffness by Ca compared to Na or K” value is “best enhancement of stiffness”. In data set [2] (2.5% RADA16 with addition of 0.125 M CaCl2), the “stiffness with added cation solution versus without” value was “noticeable increase in stiffness”. In addition, the storage modulus result in data set [2] (about 0.5 w/v percent, calcium chloride about 0.125 M) is given as “about 25 Pa”; in data set [2] (about 0.5 w/v percent, calcium chloride about 0.250 M), “about 44 Pa”; in data set [2] (about 0.5 w/v percent, calcium chloride about 0.500 M) it was “about 52 Pa”; in data set [2] (about 2.5 w/v percent, calcium chloride about 0.125 M) it was “about 600 Pa”.
